We go through two molecules from patent publication US20220135680A1 (ABZYME THERAPEUTICS, published 2022).

Assay [1] has as its target T1, human CD3 receptor on human cells (human, UniProt P07766 23-207; P09693 23-182; P04234 22-171).
T1 construct: whole, on cells; also called human CD3 on cell surface; CD3 on Jurkat cells, clone E6-1
As to the kind of experiment: flow cytometry on Jurkat cells (FIG. 5).
From the text: FIG. 5 presents the cytoflow analysis of Jurkat cells stained with various anti-CD3 antibodies at various pHs.

Assay [2] concerns the target T1, human CD3 receptor on human cells. As to the kind of experiment: flow cytometry on human cells (Example 5).

Numbering of substitutions follows the chain as printed.

B1: Abz497 ScFV (scFv)
scFv: QIQLVQSGAEVAKPGASVKVSCKASGYTFTRYTMHWVRQRPGQGLEWIGYINPSRGYTNYNQKFKDRATLTTDKSTSTAYMELSSLTSEDTAVYYCARYYDDHYCLDYWGQGTTVTVSSVEGGSGGSGGSGGSGGVDDIQLTQSPSSLSASVGDRVTITCRASSSVHYMNWYQQKSGTAPKRWIYDTSKVASGVPYRFSGSGSGTSYTLTISSLQPEDAATYYCQQWSSNPLTFGGGTKVEIKR
notes: also called pH-dependent ScFV antibody variant; not shown: FLAG tag at the C terminus
Turning to B1, the binding result in assay [1] is listed as “binds”.

B2: Abz494 ScFV (scFv)
scFv: B1 scFv with S144P
notes: as for B1
With B2, the binding result in assay [2] is given as “binds”.
